Measured values reported in patent US20120021972A1 (CADILA HEALTHCARE, published 2012).
Starred links: 1 amine or outer side, 2 acyl side, 3 side chain; linkers in the order of their positions; H or OH if unused. Non-standard residues stand in square brackets, D forms with d. No end group written: not given here. *: point of attachment. 2,4‑diF‑APPA = 2-amino-5-(2,4-difluorophenyl)pentanoic acid, O=C([C@H](CCCc1ccc(F)cc1F)N[*:1])[*:2]; AMCB = 2-amino-5-(4-chloro-2-methylphenyl)pentanoic acid, Cc1cc(Cl)ccc1CCC[C@H](N[*:1])C(=O)[*:2]; ACPP = 2-amino-5-(3-chlorophenyl)pentanoic acid, O=C([C@H](CCCc1cccc(Cl)c1)N[*:1])[*:2]; 2Cl,4OMe‑APPA = 2-amino-5-(2-chloro-4-methoxyphenyl)pentanoic acid; 2CF3‑APPA = 2-amino-5-(2-(trifluoromethyl)phenyl)pentanoic acid; Bip(2'-Et-4'-OMe) = CCc1cc(OC)ccc1-c1ccc(C[C@H](N)C(=O)O)cc1; Leu(5,5,5,5',5',5'-F6) = N[C@@H](CC(C(F)(F)F)C(F)(F)F)C(=O)O; Nva(5-(3,5-Me2Ph)) = Cc1cc(C)cc(CCC[C@H](N)C(=O)O)c1; 2Cl‑APPA = 2-amino-5-(2-chlorophenyl)pentanoic acid; 2F‑APPA = 2-amino-5-(2-fluorophenyl)pentanoic acid; αMePhe(2-F) = C[C@](N)(Cc1ccccc1F)C(=O)O; Phe(2-F) = N[C@@H](Cc1ccccc1F)C(=O)O; hhPhe = N[C@@H](CCCc1ccccc1)C(=O)O; αMeF = C[C@](N)(Cc1ccccc1)C(=O)O; NMeD = CN[C@@H](CC(=O)O)C(=O)O; aThr = C[C@H](O)[C@H](N)C(=O)O; αMeP = C[C@@]1(C(=O)O)CCCN1; NMeAPPA = not defined here; CNB = not defined here; Aib = CC(C)(N)C(=O)O; Moc = COC(=O)*

Legend:
[1] = biological target: human GLP-1 receptor (human, UniProt P43220 24-463); assay: cell-based or functional assay
[2] = biological target: human glucagon receptor (human, UniProt P47871 26-477); assay: cell-based or functional assay

human GLP-1 receptor, sequence (P43220 24-463): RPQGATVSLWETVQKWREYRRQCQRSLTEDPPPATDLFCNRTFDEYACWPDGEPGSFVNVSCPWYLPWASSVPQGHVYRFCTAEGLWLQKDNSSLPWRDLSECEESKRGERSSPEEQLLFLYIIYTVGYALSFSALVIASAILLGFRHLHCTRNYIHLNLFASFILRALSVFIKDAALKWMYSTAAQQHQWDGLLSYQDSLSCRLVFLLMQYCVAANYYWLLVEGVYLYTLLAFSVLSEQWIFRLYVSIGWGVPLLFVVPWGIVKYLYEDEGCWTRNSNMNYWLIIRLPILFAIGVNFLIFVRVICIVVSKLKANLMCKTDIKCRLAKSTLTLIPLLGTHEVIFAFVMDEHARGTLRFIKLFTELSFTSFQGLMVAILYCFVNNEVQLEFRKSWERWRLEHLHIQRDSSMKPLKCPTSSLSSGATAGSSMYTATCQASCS

Row | Binder | cAMP release, % activity, 1 nM [1] [%] | cAMP release, % activity, 10 nM [1] [%] | cAMP release, % activity, 100 nM [1] [%] | cAMP release, % activity, 1 µM [1] [%] | cAMP release, % activity, 10 µM [1] [%] | inhibition of cAMP production, 1 nM [2] [pmol/ml/µg prt] | inhibition of cAMP production, 10 nM [2] [pmol/ml/µg prt] | inhibition of cAMP production, 100 nM [2] [pmol/ml/µg prt] | inhibition of cAMP production, 1 µM [2] [pmol/ml/µg prt] | inhibition of cAMP production, 10 µM [2] [pmol/ml/µg prt]
1 | H[αMeP]QGTFTSD[Bip(2'-Et-4'-OMe)][ACPP] [Seq. ID. No. 11: H-(α-Me-Pro)-QGTFTSD-Bip(OMe)-(ACPP)] | 99 | 99 | 99 | 99 | 99 | 3 | 0 | 0 | 0 | 0
2 | H[Aib]QGT[αMePhe(2-F)]TSD[Bip(2'-Et-4'-OMe)][ACPP] [Seq. ID. No. 39: H-Aib-QGT-(α-Me-2F-Phe)-TSD-Bip(OMe)-(ACPP)] | 40 | 81 | 87 | 95 | 98 | – | – | – | – | –
3 | H[Aib][Leu(5,5,5,5',5',5'-F6)]GT[αMeF]TSD[Bip(2'-Et-4'-OMe)][hhPhe] [Seq. ID. No. 230: H-Aib-(Hfl)-GT-(α-Me-Phe)-TSD-Bip(OMe)-(APPA)] | 99 | 99 | 99 | 99 | 99 | – | – | – | – | –
4 | H[Aib][Leu(5,5,5,5',5',5'-F6)]G[aThr][αMePhe(2-F)][aThr]S[NMeD][NMeBip(OMe)][NMeAPPA] (reading uncertain) [Seq. ID. No. 220: H-Aib-(Hfl)-G-T(allo)-(α-Me-2F-Phe)-T(allo)-S-(NMe)D-((NMe)Bip(OMe))-((NMe)(APPA))] | 93 | 99 | 99 | 99 | 99 | – | – | – | – | –
5 | H[Aib][CNB]GTFTSD[Bip(2'-Et-4'-OMe)][AMCB] (reading uncertain) [Seq. ID. No. 32: H-Aib-(CNB)-GTFTSD-Bip(OMe)-(AMCB)] | 39 | 80 | 88 | 96 | 99 | – | – | – | – | –
6 | H[Aib][CNB]G[aThr][αMePhe(2-F)][aThr]SD[Bip(2'-Et-4'-OMe)][2F‑APPA] (reading uncertain) [Seq. ID. No. 116: H-Aib-(CNB)-G-T(allo)-(α-Me-2F-Phe)-T(allo)-SD-Bip(OMe)-(2F-APPA)] | 55 | 88 | 92 | 99 | 99 | 2 | 0 | 0 | 0 | 0
7 | H[Aib][CNB]GT[αMePhe(2-F)][aThr]SD[Bip(2'-Et-4'-OMe)][2F‑APPA] (reading uncertain) [Seq. ID. No. 120: H-Aib-(CNB)-GT-(α-Me-2F-Phe)-T(allo)-SD-Bip(OMe)-(2F-APPA)] | 99 | 99 | 99 | 99 | 99 | 0 | 0 | 0 | 0 | 0
8 | Ac-H[Aib][Leu(5,5,5,5',5',5'-F6)]GT[αMePhe(2-F)]TSD[Bip(2'-Et-4'-OMe)][hhPhe] [Seq. ID. No. 210: CH3CO-H-Aib-(Hfl)-GT-(α-Me-2F-Phe)-TSD-Bip(OMe)-(APPA)] | 46 | 85 | 90 | 99 | 99 | – | – | – | – | –
9 | H[Aib][Leu(5,5,5,5',5',5'-F6)]G[aThr][αMePhe(2-F)][aThr]SD[Bip(2'-Et-4'-OMe)][2F‑APPA] (also: thioamide (C═S) bonds Z9-Z10 and Z10-Z11) [Seq. ID. No. 216: H-Aib-(Hfl)-G-T(allo)-(α-Me-2F-Phe)-T(allo)-SD-(C═S)-Bip(OMe)-(C═S)-(2F-APPA)] | 93 | 99 | 99 | 99 | 99 | – | – | – | – | –
10 | HSQGTFTSD[Bip(2'-Et-4'-OMe)][2Cl‑APPA] [Seq. ID. No. 50: HSQGTFTSD-Bip(OMe)-(2Cl-APPA)] | 60 | 92 | 98 | 99 | 99 | – | – | – | – | –
11 | H[Aib][Leu(5,5,5,5',5',5'-F6)]GT[αMePhe(2-F)][aThr]SD[Bip(2'-Et-4'-OMe)][2F‑APPA] [Seq. ID. No. 224: H-Aib-(Hfl)-GT-(α-Me-2F-Phe)-T(allo)-SD-Bip(OMe)-(2F-APPA)] | 99 | 99 | 99 | 99 | 99 | – | – | – | – | –
12 | H[Aib]QGTFTSD[Bip(2'-Et-4'-OMe)][2,4‑diF‑APPA] [Seq. ID. No. 62: H-Aib-QGTFTSD-Bip(OMe)-(2,4-diF-APPA)] | 38 | 78 | 86 | 95 | 98 | – | – | – | – | –
13 | H[Aib][CNB]G[aThr][αMePhe(2-F)]TSD[Bip(2'-Et-4'-OMe)][hhPhe] (reading uncertain) [Seq. ID. No. 110: H-Aib-(CNB)-G-T(allo)-(α-Me-2F-Phe)-TSD-Bip(OMe)-(APPA)] | 38 | 77 | 85 | 94 | 97 | 18 | 16 | 12 | 8 | 6
14 | H[Aib]QG[aThr][αMePhe(2-F)][aThr]SD[Bip(2'-Et-4'-OMe)][2F‑APPA] (also: reduced (CH2) bonds Z9-Z10 and Z10-Z11) [Seq. ID. No. 203: H-Aib-QG-T(allo)-(α-Me-2F-Phe)-T(allo)-SD-(CH2)-Bip(OMe)-(CH2)-(2F-APPA)] | 86 | 99 | 99 | 99 | 99 | – | – | – | – | –
15 | Moc-H[Aib]QG[aThr][αMePhe(2-F)][aThr]SD[Bip(2'-Et-4'-OMe)][hhPhe] (also: reduced (CH2) bonds between 9-10 and 10-11) [Seq. ID. No. 198: CH3OCO-H-Aib-QG-T(allo)-(α-Me-2F-Phe)-T(allo)-SD-(CH2)-Bip(OMe)-(CH2)-(APPA)] | 82 | 87 | 92 | 99 | 99 | – | – | – | – | –
16 | H[Aib][CNB]GTFTSD[Bip(2'-Et-4'-OMe)][2Cl,4OMe‑APPA] (reading uncertain) [Seq. ID. No. 84: H-Aib-(CNB)-GTFTSD-Bip(OMe)-(2Cl,4OMe-APPA)] | 38 | 77 | 85 | 94 | 97 | 4 | 2 | 0 | 0 | 0
17 | H[Aib][CNB]G[aThr][αMePhe(2-F)]TSD[Bip(2'-Et-4'-OMe)][2F‑APPA] (reading uncertain) [Seq. ID. No. 112: H-Aib-(CNB)-G-T(allo)-(α-Me-2F-Phe)-TSD-Bip(OMe)-(2F-APPA)] | 39 | 81 | 89 | 96 | 99 | 6 | 5 | 2 | 0 | 0
18 | Moc-H[Aib]QGT[αMePhe(2-F)]TSD[Bip(2'-Et-4'-OMe)][2F‑APPA] (also: reduced (CH2) bonds between 9-10 and 10-11) [Seq. ID. No. 196: CH3OCO-H-Aib-QGT-(α-Me-2F-Phe)-TSD-(CH2)-BiP(OMe)-(CH2)-(2F-APPA)] | 39 | 81 | 89 | 96 | 99 | – | – | – | – | –
19 | H[Aib][Leu(5,5,5,5',5',5'-F6)]GT[αMePhe(2-F)]TSD[Bip(2'-Et-4'-OMe)][Nva(5-(3,5-Me2Ph))] [Seq. ID. No. 235: H-Aib-(Hfl)-GT-(α-Me-2F-Phe)-TSD-Bip(OMe)-(ADMP)] | 99 | 99 | 99 | 99 | 99 | – | – | – | – | –
20 | H[Aib][CNB]G[aThr][αMePhe(2-F)][aThr]SD[Bip(2'-Et-4'-OMe)][hhPhe] (reading uncertain) [Seq. ID. No. 114: H-Aib-(CNB)-G-T(allo)-(α-Me-2F-Phe)-T(allo)-SD-Bip(OMe)-(APPA)] | 82 | 87 | 92 | 99 | 99 | 4 | 2 | 0 | 0 | 0
21 | HSQGTFTSD[Bip(2'-Et-4'-OMe)][2CF3‑APPA] [Seq. ID. No. 47: HSQGTFTSD-Bip(OMe)-(2CF3-APPA)] | 55 | 89 | 93 | 99 | 99 | – | – | – | – | –
22 | H[Aib]QGTFTSD[Bip(2'-Et-4'-OMe)][2Cl,4OMe‑APPA] [Seq. ID. No. 68: H-Aib-QGTFTSD-Bip(OMe)-(2Cl, 4OMe-APPA)] | 39 | 80 | 88 | 96 | 99 | – | – | – | – | –
23 | H[Aib]QGT[Phe(2-F)]TSD[Bip(2'-Et-4'-OMe)][Nva(5-(3,5-Me2Ph))] [Seq. ID. No. 42: H-Aib-QGT-(2F-Phe)-TSD-Bip(OMe)-(ADMP)] | 39 | 81 | 89 | 96 | 99 | – | – | – | – | –
